Results as given in patent US20230416330A1, “Optimized GIP Peptide Analogues” (Antag Therapeutics ApS, priority 2019, published 2023).
Non-standard residues stand in square brackets, D forms with d. No end group written: not given here. *: point of attachment. C16 diacid = O=C(O)CCCCCCCCCCCCCCC(=O)*; Nle = CCCC[C@H](N)C(=O)O; Aib = CC(C)(N)C(=O)O

B1: AT668 (peptide)
peptide: EGTFISDYSIALDKIK(C16 diacid)QQDFVEWLLAQKPSSGAPPPS-OH
modifications: N-terminus assumed
SMILES: CC[C@H](C)[C@H](NC(=O)[C@H](CO)NC(=O)[C@H](Cc1ccc(O)cc1)NC(=O)[C@H](CC(=O)O)NC(=O)[C@H](CO)NC(=O)[C@@H](NC(=O)[C@H](Cc1ccccc1)NC(=O)[C@@H](NC(=O)CNC(=O)[C@@H](N)CCC(=O)O)[C@@H](C)O)[C@@H](C)CC)C(=O)N[C@@H](C)C(=O)N[C@@H](CC(C)C)C(=O)N[C@@H](CC(=O)O)C(=O)N[C@@H](CCCCN)C(=O)N[C@H](C(=O)N[C@@H](CCCCNC(=O)CCCCCCCCCCCCCCC(=O)O)C(=O)N[C@@H](CCC(N)=O)C(=O)N[C@@H](CCC(N)=O)C(=O)N[C@@H](CC(=O)O)C(=O)N[C@@H](Cc1ccccc1)C(=O)N[C@H](C(=O)N[C@@H](CCC(=O)O)C(=O)N[C@@H](Cc1c[nH]c2ccccc12)C(=O)N[C@@H](CC(C)C)C(=O)N[C@@H](CC(C)C)C(=O)N[C@@H](C)C(=O)N[C@@H](CCC(N)=O)C(=O)N[C@@H](CCCCN)C(=O)N1CCC[C@H]1C(=O)N[C@@H](CO)C(=O)N[C@@H](CO)C(=O)NCC(=O)N[C@@H](C)C(=O)N1CCC[C@H]1C(=O)N1CCC[C@H]1C(=O)N1CCC[C@H]1C(=O)N[C@@H](CO)C(=O)O)C(C)C)[C@@H](C)CC
B2: AT673 (peptide)
peptide: EGTFISEYSI[Aib]LEKIK(C16 diacid)QQEFVEWLLAQKPSSGAPPPS-OH
modifications: N-terminus assumed
SMILES: CC[C@H](C)[C@H](NC(=O)[C@H](CCCCN)NC(=O)[C@H](CCC(=O)O)NC(=O)[C@H](CC(C)C)NC(=O)C(C)(C)NC(=O)[C@@H](NC(=O)[C@H](CO)NC(=O)[C@H](Cc1ccc(O)cc1)NC(=O)[C@H](CCC(=O)O)NC(=O)[C@H](CO)NC(=O)[C@@H](NC(=O)[C@H](Cc1ccccc1)NC(=O)[C@@H](NC(=O)CNC(=O)[C@@H](N)CCC(=O)O)[C@@H](C)O)[C@@H](C)CC)[C@@H](C)CC)C(=O)N[C@@H](CCCCNC(=O)CCCCCCCCCCCCCCC(=O)O)C(=O)N[C@@H](CCC(N)=O)C(=O)N[C@@H](CCC(N)=O)C(=O)N[C@@H](CCC(=O)O)C(=O)N[C@@H](Cc1ccccc1)C(=O)N[C@H](C(=O)N[C@@H](CCC(=O)O)C(=O)N[C@@H](Cc1c[nH]c2ccccc12)C(=O)N[C@@H](CC(C)C)C(=O)N[C@@H](CC(C)C)C(=O)N[C@@H](C)C(=O)N[C@@H](CCC(N)=O)C(=O)N[C@@H](CCCCN)C(=O)N1CCC[C@H]1C(=O)N[C@@H](CO)C(=O)N[C@@H](CO)C(=O)NCC(=O)N[C@@H](C)C(=O)N1CCC[C@H]1C(=O)N1CCC[C@H]1C(=O)N1CCC[C@H]1C(=O)N[C@@H](CO)C(=O)O)C(C)C
B3: AT623 (peptide)
peptide: EGTFISDYSIAMDKIK(C16 diacid)QQDFVEWLLAQAPSSGAPPPS-OH
modifications: N-terminus assumed
SMILES: CC[C@H](C)[C@H](NC(=O)[C@H](CO)NC(=O)[C@H](Cc1ccc(O)cc1)NC(=O)[C@H](CC(=O)O)NC(=O)[C@H](CO)NC(=O)[C@@H](NC(=O)[C@H](Cc1ccccc1)NC(=O)[C@@H](NC(=O)CNC(=O)[C@@H](N)CCC(=O)O)[C@@H](C)O)[C@@H](C)CC)C(=O)N[C@@H](C)C(=O)N[C@@H](CCSC)C(=O)N[C@@H](CC(=O)O)C(=O)N[C@@H](CCCCN)C(=O)N[C@H](C(=O)N[C@@H](CCCCNC(=O)CCCCCCCCCCCCCCC(=O)O)C(=O)N[C@@H](CCC(N)=O)C(=O)N[C@@H](CCC(N)=O)C(=O)N[C@@H](CC(=O)O)C(=O)N[C@@H](Cc1ccccc1)C(=O)N[C@H](C(=O)N[C@@H](CCC(=O)O)C(=O)N[C@@H](Cc1c[nH]c2ccccc12)C(=O)N[C@@H](CC(C)C)C(=O)N[C@@H](CC(C)C)C(=O)N[C@@H](C)C(=O)N[C@@H](CCC(N)=O)C(=O)N[C@@H](C)C(=O)N1CCC[C@H]1C(=O)N[C@@H](CO)C(=O)N[C@@H](CO)C(=O)NCC(=O)N[C@@H](C)C(=O)N1CCC[C@H]1C(=O)N1CCC[C@H]1C(=O)N1CCC[C@H]1C(=O)N[C@@H](CO)C(=O)O)C(C)C)[C@@H](C)CC
B4: AT616 (peptide)
peptide: EGTFISEYSI[Aib]MEKIK(C16 diacid)QQDFVEWLLAQKPSSGAPPPS-OH
modifications: N-terminus assumed
SMILES: CC[C@H](C)[C@H](NC(=O)[C@H](CCCCN)NC(=O)[C@H](CCC(=O)O)NC(=O)[C@H](CCSC)NC(=O)C(C)(C)NC(=O)[C@@H](NC(=O)[C@H](CO)NC(=O)[C@H](Cc1ccc(O)cc1)NC(=O)[C@H](CCC(=O)O)NC(=O)[C@H](CO)NC(=O)[C@@H](NC(=O)[C@H](Cc1ccccc1)NC(=O)[C@@H](NC(=O)CNC(=O)[C@@H](N)CCC(=O)O)[C@@H](C)O)[C@@H](C)CC)[C@@H](C)CC)C(=O)N[C@@H](CCCCNC(=O)CCCCCCCCCCCCCCC(=O)O)C(=O)N[C@@H](CCC(N)=O)C(=O)N[C@@H](CCC(N)=O)C(=O)N[C@@H](CC(=O)O)C(=O)N[C@@H](Cc1ccccc1)C(=O)N[C@H](C(=O)N[C@@H](CCC(=O)O)C(=O)N[C@@H](Cc1c[nH]c2ccccc12)C(=O)N[C@@H](CC(C)C)C(=O)N[C@@H](CC(C)C)C(=O)N[C@@H](C)C(=O)N[C@@H](CCC(N)=O)C(=O)N[C@@H](CCCCN)C(=O)N1CCC[C@H]1C(=O)N[C@@H](CO)C(=O)N[C@@H](CO)C(=O)NCC(=O)N[C@@H](C)C(=O)N1CCC[C@H]1C(=O)N1CCC[C@H]1C(=O)N1CCC[C@H]1C(=O)N[C@@H](CO)C(=O)O)C(C)C
B5: AT614 (peptide)
peptide: EGTFISEYSIAMEKIK(C16 diacid)QQEFVEWLLAQKPSSGAPPPS-OH
modifications: N-terminus assumed
SMILES: CC[C@H](C)[C@H](NC(=O)[C@H](CO)NC(=O)[C@H](Cc1ccc(O)cc1)NC(=O)[C@H](CCC(=O)O)NC(=O)[C@H](CO)NC(=O)[C@@H](NC(=O)[C@H](Cc1ccccc1)NC(=O)[C@@H](NC(=O)CNC(=O)[C@@H](N)CCC(=O)O)[C@@H](C)O)[C@@H](C)CC)C(=O)N[C@@H](C)C(=O)N[C@@H](CCSC)C(=O)N[C@@H](CCC(=O)O)C(=O)N[C@@H](CCCCN)C(=O)N[C@H](C(=O)N[C@@H](CCCCNC(=O)CCCCCCCCCCCCCCC(=O)O)C(=O)N[C@@H](CCC(N)=O)C(=O)N[C@@H](CCC(N)=O)C(=O)N[C@@H](CCC(=O)O)C(=O)N[C@@H](Cc1ccccc1)C(=O)N[C@H](C(=O)N[C@@H](CCC(=O)O)C(=O)N[C@@H](Cc1c[nH]c2ccccc12)C(=O)N[C@@H](CC(C)C)C(=O)N[C@@H](CC(C)C)C(=O)N[C@@H](C)C(=O)N[C@@H](CCC(N)=O)C(=O)N[C@@H](CCCCN)C(=O)N1CCC[C@H]1C(=O)N[C@@H](CO)C(=O)N[C@@H](CO)C(=O)NCC(=O)N[C@@H](C)C(=O)N1CCC[C@H]1C(=O)N1CCC[C@H]1C(=O)N1CCC[C@H]1C(=O)N[C@@H](CO)C(=O)O)C(C)C)[C@@H](C)CC
B6: AT617 (peptide)
peptide: EGTFISDYSIAMDKIK(C16 diacid)QQDFVEWLLAQKPSSGAPPPS-OH
modifications: N-terminus assumed
SMILES: CC[C@H](C)[C@H](NC(=O)[C@H](CO)NC(=O)[C@H](Cc1ccc(O)cc1)NC(=O)[C@H](CC(=O)O)NC(=O)[C@H](CO)NC(=O)[C@@H](NC(=O)[C@H](Cc1ccccc1)NC(=O)[C@@H](NC(=O)CNC(=O)[C@@H](N)CCC(=O)O)[C@@H](C)O)[C@@H](C)CC)C(=O)N[C@@H](C)C(=O)N[C@@H](CCSC)C(=O)N[C@@H](CC(=O)O)C(=O)N[C@@H](CCCCN)C(=O)N[C@H](C(=O)N[C@@H](CCCCNC(=O)CCCCCCCCCCCCCCC(=O)O)C(=O)N[C@@H](CCC(N)=O)C(=O)N[C@@H](CCC(N)=O)C(=O)N[C@@H](CC(=O)O)C(=O)N[C@@H](Cc1ccccc1)C(=O)N[C@H](C(=O)N[C@@H](CCC(=O)O)C(=O)N[C@@H](Cc1c[nH]c2ccccc12)C(=O)N[C@@H](CC(C)C)C(=O)N[C@@H](CC(C)C)C(=O)N[C@@H](C)C(=O)N[C@@H](CCC(N)=O)C(=O)N[C@@H](CCCCN)C(=O)N1CCC[C@H]1C(=O)N[C@@H](CO)C(=O)N[C@@H](CO)C(=O)NCC(=O)N[C@@H](C)C(=O)N1CCC[C@H]1C(=O)N1CCC[C@H]1C(=O)N1CCC[C@H]1C(=O)N[C@@H](CO)C(=O)O)C(C)C)[C@@H](C)CC

Target: T1, human GIP receptor (human, UniProt P48546 22-466)
T1 sequence (looked up): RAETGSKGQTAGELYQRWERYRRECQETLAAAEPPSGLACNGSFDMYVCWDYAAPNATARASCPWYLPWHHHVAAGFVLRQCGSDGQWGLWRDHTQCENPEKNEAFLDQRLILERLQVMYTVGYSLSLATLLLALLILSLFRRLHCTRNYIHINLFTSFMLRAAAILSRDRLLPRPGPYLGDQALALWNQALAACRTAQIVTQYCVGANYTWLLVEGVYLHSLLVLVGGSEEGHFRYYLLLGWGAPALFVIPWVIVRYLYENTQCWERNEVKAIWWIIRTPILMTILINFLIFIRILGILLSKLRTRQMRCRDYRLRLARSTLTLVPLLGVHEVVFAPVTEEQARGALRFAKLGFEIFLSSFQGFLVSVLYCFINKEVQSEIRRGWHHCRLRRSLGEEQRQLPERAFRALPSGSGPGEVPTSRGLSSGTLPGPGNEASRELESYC
Test: cell-based or functional assay

Binder	cAMP antagonism % inhib (CisBio assay)	cAMP antagonism nM (IC50, CisBio assay)	cAMP antagonism pIC50 (CisBio assay)
B1	92%	0.944 nM	9
B2	94%	0.136 nM	9.9
B3	98%	3.16 nM	8.5
EGTFISDYSI[Aib]LDKIK(C16 diacid)QQDFVEWLLAQKPSSGAPPPS-OH [AT666]	89%	0.266 nM	9.6
B4	100%	0.473 nM	9.3
EGTFISDYSI[Aib][Nle]DKIK(C16 diacid)QQDFVEWLLAQKPSSGAPPPS-OH [AT667]	86%	0.736 nM	9.1
EGTFISDYSI[Aib]MDKIK(C16 diacid)QQDFVEWLLAQKPSSGAPPPS-OH [AT665]	88%	0.15 nM	9.8
B5	100%	1.08 nM	9
B6	91%	0.794 nM	9.1
